Data as given in US20260274933A1 (Innovent, published 2026).
Positions count from the first letter of the chain named. One block for each binder: values may come before it.

Tests used:
[1] = biological target: T1, biotin-labeled VEGF A165 (ACRO, Catalog No. VE5-H8210) (human, UniProt P15692-4 27-191, biotin-labeled); assay: blocking ELISA: biotin VEGF A165 captured on streptavidin, binding of VEGFR-Fc blocked; value printed as EC50 in the table under the curves, unit from the axis
T1 construct: also called hVEGF A
T1 sequence (P15692 other isoform, or with tags, fused parts or gaps limits assumed): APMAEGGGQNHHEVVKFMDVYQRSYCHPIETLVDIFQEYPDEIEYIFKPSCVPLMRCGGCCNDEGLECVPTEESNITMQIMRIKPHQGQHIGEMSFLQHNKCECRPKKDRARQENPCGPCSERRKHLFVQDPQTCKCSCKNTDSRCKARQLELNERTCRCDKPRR
Procedure: (§1) SA (Thermo, Catalog No. 21125) was diluted to 1 μg/mL, and 100 μL/well of SA was plated in a microplate at 4° C. overnight. The plate was washed 3 times with PBST and blocked with 3% BSA for 1.5 h. […] The plate was washed 6 times with PBST, the color development was performed with TMB for 5 min, and OD450 nm was read after stopping.

[2] = biological target: T2, human VEGF165 (R&D) (human, UniProt P15692-4 27-191); assay: BLI (ForteBio), bivalent binding
T2 construct: Antigen of the ForteBio assay
T2 sequence (P15692 other isoform, or with tags, fused parts or gaps limits assumed): as above

[3] = biological target: T2, human VEGF165 (R&D); assay: BLI (ForteBio), monovalent binding
[4] = biological target: T3, hAng2-Fc (Beijing Sino Biological, Catalog No. 10691-H02H) (human, UniProt O15123 19-496); assay: flow cytometry blocking: binding of hAng2-Fc to Tie2 on 293-Tie2 cells blocked, Mean PE-A; unit from the axis
T3 construct: Bought fusion protein; also called human Ang2-hFc; recombinant hAng2-Fc protein; not shown: human Fc of the bought fusion protein
T3 sequence (looked up): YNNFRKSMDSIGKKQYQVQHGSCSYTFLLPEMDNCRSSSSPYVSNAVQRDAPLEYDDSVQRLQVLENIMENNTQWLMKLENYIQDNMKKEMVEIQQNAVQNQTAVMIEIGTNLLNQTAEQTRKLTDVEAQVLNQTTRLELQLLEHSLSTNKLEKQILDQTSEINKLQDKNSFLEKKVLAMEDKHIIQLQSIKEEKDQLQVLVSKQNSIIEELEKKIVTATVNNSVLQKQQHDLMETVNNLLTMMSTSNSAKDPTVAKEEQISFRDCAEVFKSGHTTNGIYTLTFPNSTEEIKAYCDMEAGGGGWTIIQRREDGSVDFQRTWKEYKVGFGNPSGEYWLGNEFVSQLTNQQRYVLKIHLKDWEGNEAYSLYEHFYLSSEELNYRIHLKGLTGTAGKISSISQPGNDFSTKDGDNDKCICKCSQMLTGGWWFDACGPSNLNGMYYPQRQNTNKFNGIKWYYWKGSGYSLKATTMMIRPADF
Procedure: (§2) The cells were centrifuged at 300 g for 5 min. The supernatant was discarded. Then the cells were resuspended in an antigen-antibody mixture. The mixture was incubated on ice for 30 min. PBS was added at 100 μL/well. After centrifugation at 300 g for 5 min, the mixture was washed once with PBS. 100 μL of goat anti-human IgG-PE (SouthernBiotech) diluted in a 1:200 ratio was added to each well. After a 20-min ice bath, PBS was added at 100 μL/well. The mixture was centrifuged at 300 g for 5 min, prior to one wash with PBS. The cells were resuspended with 100 μL of PBS. The cell fluorescence signal values were measured by a flow cytometer (BD Biosciences). According to MFI, the concentration-dependent curve was fitted with GraphPad.

[5] = biological target: T4, hAng2-biotin (R&D, Catalog No. BT623B/CF) (human, UniProt O15123 68-496, limits assumed, biotinylated); assay: blocking ELISA: hTie2 coated, binding of biotinylated hAng2 blocked; unit from the axis
T4 construct: also called Ang2-Bio (R&D, Catalog No. BT623B/CF); Recombinant Biotinylated hAngiopoietin-2 protein (R&D)
T4 sequence (looked up): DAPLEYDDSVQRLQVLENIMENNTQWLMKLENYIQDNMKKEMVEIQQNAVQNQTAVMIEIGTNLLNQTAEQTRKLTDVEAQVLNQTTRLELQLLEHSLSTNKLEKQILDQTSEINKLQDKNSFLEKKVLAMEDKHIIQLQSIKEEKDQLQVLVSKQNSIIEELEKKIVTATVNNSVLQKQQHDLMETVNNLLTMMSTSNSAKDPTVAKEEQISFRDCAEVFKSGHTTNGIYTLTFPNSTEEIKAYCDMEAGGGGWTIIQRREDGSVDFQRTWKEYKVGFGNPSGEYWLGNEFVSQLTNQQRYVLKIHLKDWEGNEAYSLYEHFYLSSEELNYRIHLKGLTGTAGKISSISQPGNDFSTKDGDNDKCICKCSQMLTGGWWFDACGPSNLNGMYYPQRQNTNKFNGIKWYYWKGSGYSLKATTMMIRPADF
Procedure: (§3) The antigen-antibody mixture obtained as described above was incubated in the microplate for 90 min and washed three times with PBS, and the supernatant was discarded. 100 μL of Avidin-HRP (Invitrogen) diluted in a 1:10000 ratio was added to each well, incubated at room temperature for 30 min, and washed six times with PBS. A TMB chromogenic solution (solarbio) was added to the plate at 100 μL/well for color development for 1 min, and the reaction was stopped by adding a stop solution (Solarbio) at 100 μL/well.

[6] = biological target: T5, human Ang2 (human, UniProt O15123 19-496, limits assumed); assay: BLI (ForteBio), bivalent binding; * dissociation constant exceeding ForteBio detection limits
T5 construct: Antigen of the ForteBio assay; also called human Ang2 (Beijing Sino Biological)
T5 sequence (looked up): T3 sequence (looked up)

[7] = biological target: T5, human Ang2; assay: BLI (ForteBio), bivalent binding
[8] = biological target: T5, human Ang2; assay: BLI (ForteBio), monovalent binding
[9] = biological target: T4, hAng2-biotin (R&D, Catalog No. …); assay: blocking ELISA: Tie2-Fc coated, binding of hAng2-biotin blocked
Procedure: The plate was washed 3 times with PBST and blocked with 3% BSA for 1.5 h. […] The plate was washed 3 times with PBST, Avidin HRP (1:2000) was added, and the plate was incubated for 35 min. The plate was washed 6 times with PBST, the color development was performed with TMB for 5 min, and OD450 nm was read after stopping.

[10] = biological target: T3, hAng2-Fc (Beijing Sino Biological, …); assay: flow cytometry blocking: binding of hAng2-Fc to Tie2 on 293-Tie2 cells blocked, Mean-PE-A; unit from the axis
Procedure: as §2

[11] = biological target: T4, hAng2-biotin (R&D, Catalog No. …); assay: blocking ELISA: hTie2 coated, binding of biotinylated hAng2; fit value printed for the flat curve of the negative control, unit from the axis
Procedure: as §3

[12] = biological target: T3, hAng2-Fc (Beijing Sino Biological, …); assay: flow cytometry blocking: binding of hAng2-Fc to Tie2 on 293-Tie2 cells, Mean PE-A; fit value printed for the flat curve of the negative control, unit from the axis
Procedure: as §2

[13] = biological target: T3, hAng2-Fc (Beijing Sino Biological, …); assay: flow cytometry blocking: binding of hAng2-Fc to Tie2 on 293-Tie2 cells, Mean-PE-A; fit value printed for the flat curve of the negative control, unit from the axis
Procedure: as §2

[14] = biological target: T1, biotin-labeled VEGF A165 (ACRO, Catalog …); assay: blocking ELISA: biotin VEGF A165 captured on streptavidin, binding of VEGFR-Fc; fit value printed for the flat curve of the negative control, unit from the axis
Procedure: as §1

[15] = biological target: T4, hAng2-biotin (R&D, Catalog No. …); assay: blocking ELISA: hTie2 coated, binding of biotinylated hAng2; fit value printed for the flat curve of the negative control, unit from the axis; remark: listed apart in the source
Procedure: as §3

B2: LA46E11 (VEGFA VHH) (VHH)
VHH: QVQLEESGGGLVQPGGSLRLSCVASGSIFSINAMGWHRQAPGSQRELVATMIGGSSTFYADSVNGRFTISRDNAKNTVYLQMNSLKLEDTAVYYCYADVTGRSGTSIWNKRDDYWGQGTLVTVSS
notes: Alpaca anti-VEGF A VHH; also called LA46E11 supernatant
Kd [2]: 1.11 nM
koff [2]: 0.0002 s⁻¹
kon [2]: 179000 M⁻¹ s⁻¹
Kd [3]: 7.74 nM
koff [3]: 0.00142 s⁻¹
kon [3]: 184000 M⁻¹ s⁻¹
EC50 [1]: 0.344 µg/mL

B6: LA24C11 (Ang2 VHH) (VHH)
VHH: QVQLVESGGGLVQPGGSLRLSCAASGFALDYYAIGWFRQAPGKEREGVSCISSGDGSTYYADSVKGRFTISRDNAKNTVYLQMNSLKPEDTAVYYCATDSRGDDVACEGLRRNEYDYWGQGTQVTVSS
notes: Alpaca anti-Ang2 VHH
koff [6]: ≤ 0.0002 s⁻¹
Kd [7]: 0.867 nM
kon [7]: 231000 M⁻¹ s⁻¹
Kd [8]: 2.18 nM
koff [8]: 0.00166 s⁻¹
kon [8]: 761000 M⁻¹ s⁻¹

B7: LA24C11.10 (Ang2 VHH) (VHH)
VHH: B6 VHH with Q1E, V5L, E44G, R45L, D55E, A75S, K87R, P88A, Q123L
notes: Humanized anti-Ang2 VHH; also called hz24C11.10; LA24C11.0
IC50 (read off the curve) [9]: ~0.06 µg/mL
koff [6]: ≤ 0.0002 s⁻¹
Kd [7]: ≤ 0.828 nM
kon [7]: 242000 M⁻¹ s⁻¹

B8: IEX04-012 (bispecific antibody)
chain: DIQLTQSPSSLSASVGDRVTITCSASQDISNYLNWYQQKPGKAPKVLIYFTSSLHSGVPSRFSGSGSGTDFTLTISSLQPEDFATYYCQQYSTVPWTFGCGTKVEIKGGGGSGGGGSGGGGSGGGGSEVQLVESGGGLVQPGGSLRLSCAASGYDFTHYGMNWVRQAPGKCLEWVGWINTYTGEPTYAADFKRRFTFSLDTSKSTAYLQMNSLRAEDTAVYYCAKYPYYYGTSHWYFDVWGQGTLVTVSSGGGGSGGGGSGGGGSEVQLLESGGGLVQPGGSLRLSCAASGFALDYYAIGWFRQAPGKGLEGVSCISSGEGSTYYADSVKGRFTISRDNSKNTVYLQMNSLRAEDTAVYYCATDSRGDDVACEGLRRNEYDYWGQGTLVTVSS
notes: also called Ranibizumab scFv containing disulfide bond mutations + linker + LA24C11.10; recombinant anti-VEGF A/anti-Ang2 bispecific antibody
IC50 [5]: 7.1 nM
IC50 [10]: 0.685 nM

The next lines start with the values.

EC50 [1]: 0.034 µg/mL
B1: BI-anti-VEGF (VHH)
VHH: DVQLVESGGGLVQPGGSLRLSCAASGRTFSSYSMGWFRQAPGKEREFVVAISKGGYKYDAVSLEGRFTISRDNAKNTVYLQINSLRPEDTAVYYCASSRAYGSSRLRLADTYEYWGQGTLVTVSS
notes: also called Positive control antibody BI-anti-VEGF

Kd [2]: 0.788 nM
koff [2]: 0.000332 s⁻¹
kon [2]: 421000 M⁻¹ s⁻¹
B3: LA46E11.8 (VEGFA VHH) (VHH)
VHH: B2 VHH with Q1E, E5L, V23A, S43K, D61E, N64Q, A74S, K86R, L87A, L120Q
notes: Humanized anti-VEGF A VHH; also called humanized LA46E11

IC50 [4]: 0.554 nM
IC50 [5]: 13.5 nM
B4: IEX04-008 (bispecific antibody)
chain: EVQLLESGGGLVQPGGSLRLSCAASGSIFSINAMGWHRQAPGKQRELVATMIGGSSTFYAESVQGRFTISRDNSKNTVYLQMNSLRAEDTAVYYCYADVTGRSGTSIWNKRDDYWGQGTQVTVSSGGGGSGGGGSEVQLLESGGGLVQPGGSLRLSCAASGSIFSINAMGWHRQAPGKQRELVATMIGGSSTFYAESVQGRFTISRDNSKNTVYLQMNSLRAEDTAVYYCYADVTGRSGTSIWNKRDDYWGQGTQVTVSSGGGGSGGGGSEVQLLESGGGLVQPGGSLRLSCAASGFALDYYAIGWFRQAPGKGLEGVSCISSGEGSTYYADSVKGRFTISRDNSKNTVYLQMNSLRAEDTAVYYCATDSRGDDVACEGLRRNEYDYWGQGTLVTVSS
notes: also called LA46E11.8 (VHH) + linker + LA46E11.8 (VHH) + LA24C11.10

Kd [2]: 0.2 nM
koff [2]: 0.000213 s⁻¹
kon [2]: 1.06e+06 M⁻¹ s⁻¹
B5: LA42F8.5 (VHH)
VHH: EVQLLESGGGLVQPGGSLRLSCAASGFNLDYYPIGWFRQAPGKGLEGVSCISSVGSTNYADSVKGRFTISRDNSKNTVYLQMNSLRAEDTAVYYCAADPLCSALILPPPFLSWGQGTQVTVSS
notes: also called humanized LA42F8

IC50 [11]: ~0.596 nM
IC50 [12]: ~0.019 nM
IC50 [13]: ~10.1 nM
EC50 [14]: 0.00208 µg/mL
IC50 [15]: ~6.79 nM
B9: IgG (antibody, V domains shown)
VH: EVRLLESGGGLVQPGGSLRLSCAASGFTFSNYAMGWVRQAPGKGLEWVSAISGSGGSTYYADSVKGRFTTSRDDSKNALYLQMNSLRAEDTAVYYCARGGPGWYAADVWGQGTTVTVSS
VL: DIQMTQSPSSLSASVGDRVTITCRASQSISSYLNWYQQKPGKAPKLLIYAASSLQSGVPSRFSGSGSGTDFTLTISSLQPEDFATYYCQQADLPAFAFGGGTKVEIKR
notes: also called Negative control IgG
